Measurements as given in patent publication US20220380463A1 (Adimab, published 2022).
Substitutions are numbered along the chain they refer to.

T1: Cynomolgus CD3εδ Fc heterodimer (Cy CD3ε Fc / CD3δ Fc-HIS) (cynomolgus, UniProt Q95LI8 22-100)
T1 chain 1: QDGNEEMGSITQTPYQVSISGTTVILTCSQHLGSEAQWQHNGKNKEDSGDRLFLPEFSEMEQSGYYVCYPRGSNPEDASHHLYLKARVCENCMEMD
T1 chain 2: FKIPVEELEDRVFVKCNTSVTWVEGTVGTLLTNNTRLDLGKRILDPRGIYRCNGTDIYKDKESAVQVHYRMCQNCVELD

B1: SAD10318_P03_A08 (ADI-57283) (antibody, V domains shown)
VH: QVQLVQSGAEVKKPGASVKVSCKASGFNIKDYYMHWVRQAPGQRLEWMGWIDLENANTIYDAKFQGRVTITRDTSASTAYMELSSLRSEDTAVYYCARDAYGRYHYDHWGQGTLVTVSS
VL: DIVMTQSPDSLAVSLGERATINCKSSQSLLNARTGHNHLAWYQQKPGQPPKLLIYWASTRESGVPDRFSGSGSGTDFTLTISSLQAEDVAVYYCKQSYSRRTFGGGTKVEIK
notes: IgG; also called Ab195
B2: SAD10318_P04_H10 (ADI-57290) (antibody, V domains shown)
VH: B1 VH with A100H, R103H, H105F, H108V
VL: B1 VL with R33H, H36K
notes: IgG; also called Ab214
B3: SAD10318_P03_F09 (ADI-57286) (antibody, V domains shown)
VH: B1 VH with R103H, H108V
VL: B1 VL with R33H, T34P, H36K, H38Y, K95H, S99H
notes: IgG; also called Ab208
B4: SAD10319_P02_A04 (ADI-57307) (antibody, V domains shown)
VH: QVQLVQSGAEVKKPGASVKVSCKASGYTFDSYSMHWVRQAPGQRLEWMGWINPDTGATDYSQKFQGRVTITRDTSASTAYMELSSLRSEDTAVYYCARDHYGHYFYDVWGQGTLVTVSS
VL: B1 VL with H36K, H38Y
notes: IgG; also called Ab247
B5: SAD10318_P03_G08 (ADI-57285) (antibody, V domains shown)
VH: B1 VH with A100H, G102H, H105F, H108V
VL: B1 VL with N31H, H36K, Y98H, R100H
notes: IgG; also called Ab201
B6: SAD10318_P04_G12 (ADI-57296) (antibody, V domains shown)
VH: B1 VH with R103H, H108V
VL: B1 VL with R33H, H36K
notes: IgG; also called Ab227
B7: SAD10318_P04_H12 (ADI-57297) (antibody, V domains shown)
VH: B1 VH with Y101H, H105F, Y106H, H108V
VL: B1 VL with R33H, H36K, K95H, R100H
notes: IgG; also called Ab228
B8: SAD10318_P04_F10 (ADI-57289) (antibody, V domains shown)
VH: B1 VH with G102H, H108V
VL: B1 VL with G35H, H36K
notes: IgG; also called Ab213
B9: SAD10319_P01_A01 (ADI-48619) (antibody, V domains shown)
VH: B4 VH with D30A, S33A, A57N, D59V, H100A, G102H
VL: B1 VL with H36K, H38Y
notes: IgG; also called Ab229
B10: SAD10319_P02_B06 (ADI-57321) (antibody, V domains shown)
VH: B4 VH with D30T, S33T, L45P, W50S, P53A, D54G, A57F
VL: B1 VL with H36K, H38Y
notes: IgG; also called Ab9
B11: SAD10318_P04_G11 (ADI-57294) (antibody, V domains shown)
VH: B1 VH with T74A, G102H, H108V
VL: B1 VL with R33H, H36K, Y98H
notes: IgG; also called Ab222
B12: SAD10319_P02_G05 (ADI-57318) (antibody, V domains shown)
VH: B4 VH with D30T, S31Q, S33T, W50S, N52D, P53A, D54G, D59K, H100A, G102H
VL: B1 VL with H36K, H38Y
notes: IgG; also called Ab6
B13: SAD10319_P01_F01 (ADI-57299) (antibody, V domains shown)
VH: B4 VH with D30Q, S33D, E46Q, D54T, A57N, D59V, H100A, H103R
VL: B1 VL with H36K, H38Y
notes: IgG; also called Ab233
B14: SAD10319_P02_D06 (ADI-48631) (antibody, V domains shown)
VH: B4 VH with D30T, S31D, S33A, P53A, D54G, D59I, H100A, G102H
VL: B1 VL with H36K, H38Y
notes: IgG; also called Ab11
B15: SAD10319_P02_D04 (ADI-57310) (antibody, V domains shown)
VH: B4 VH with D30T, S33A, E46Q, N52D, P53A, D54G, A57N, D59Y, H100A, Y101H
VL: B1 VL with H36K, H38Y
notes: IgG; also called Ab251
B16: SAD10319_P01_C03 (ADI-48626) (antibody, V domains shown)
VH: B4 VH with D30T, S31D, S33D, N52D, D54Y, D59K, H100A
VL: B1 VL with H36K, H38Y
notes: IgG; also called Ab244
B17: SAD10319_P01_C01 (ADI-48621 and ADI-48636) (antibody, V domains shown)
VH: B4 VH with D30T, S31D, S33D, N52D, P53A, D54G, A57L, D59K
VL: B1 VL with H36K, H38Y
notes: IgG; also called Ab230
B18: SAD10319_P01_G01 (ADI-57300) (antibody, V domains shown)
VH: QVQLVQSGAEVKKPGASVKVSCKASGYTFTSADMHWVRQAPGQRLQPMGWINAGTGATKYSQKFQGRVTITRDTSANTAYMELSSLRSEDTAVYYCARDAYGRYFYDVWGQGTLVTVSS
VL: B1 VL with H36K, H38Y
notes: IgG; ADI-57300 is also printed for Ab28; also called Ab234
B19: SAD10319_P02_C05 (ADI-57315) (antibody, V domains shown)
VH: B4 VH with D30T, S31D, S33N, D54L, A57T, D59K, H100A, G102H
VL: B1 VL with H36K, H38Y
notes: IgG; also called Ab257
B20: SAD10319_P02_D05 (ADI-57316) (antibody, V domains shown)
VH: QVQLVQSGAEVKKPGASVKVSCKASGYTFNDYAMHWVRQAPGQRLAWMGWIDAGTGNTYYSQKFQGRVTITRDTSASTAYMELSSLRSEDTAVYYCARDAHGHYFYDVWGQGTLVTVSS
VL: B1 VL with H36K, H38Y
notes: IgG; also called Ab258
B21: SAD10318_P04_F11 (ADI-57293) (antibody, V domains shown)
VH: B1 VH with I29T, Y101H, H108V
VL: B1 VL
notes: IgG; also called Ab221
B22: SAD10319_P02_H04 (ADI-57313) (antibody, V domains shown)
VH: B4 VH with D30T, S33A, D59K, H100A, Y101H
VL: B1 VL with H36K, H38Y
notes: IgG; also called Ab254
B23: SAD10319_P01_B03 (ADI-57305) (antibody, V domains shown)
VH: B4 VH with D30N, S31A, S33A, D59T, H100A, G102H
VL: B1 VL with H36K, H38Y
notes: IgG; also called Ab243
B24: SAD10319_P01_F02 (ADI-48624) (antibody, V domains shown)
VH: B4 VH with D30E, S33D, N52D, P53A, D54G, A57N, D59K, R72A, T74E, A76T
VL: B1 VL with H36K, H38Y
notes: IgG; also called Ab241
B25: SAD10318_P03_G09 (ADI-57287) (antibody, V domains shown)
VH: B1 VH with A100H, R103H, H105F, H108V
VL: B1 VL with R33H, H38Y, K95H, R100H
notes: IgG; also called Ab209
B26: SAD10319_P02_F05 (ADI-57317) (antibody, V domains shown)
VH: B20 VH with D31N, A46E, Y59D, G102H, H103R
VL: B1 VL with H36K, H38Y
notes: IgG; also called Ab5
B27: SAD10319_P01_D03 (ADI-57306) (antibody, V domains shown)
VH: B4 VH with D30T, S33N, N52D, P53A, D54G, D59H, H100A, G102H
VL: B1 VL with H36K, H38Y
notes: IgG; also called Ab245
B28: SAD10319_P01_E01 (ADI-57298) (antibody, V domains shown)
VH: B4 VH with S31A, S33A, N52D, P53A, D54G, D59A
VL: B1 VL with H36K, H38Y
notes: IgG; also called Ab232
B29: SAD10319_P02_H05 (ADI-57319) (antibody, V domains shown)
VH: B4 VH with D30T, S31Q, P53A, D54G, A57D, D59V, Y101H, H103R
VL: B1 VL with L30F, H36K, H38Y
notes: IgG; also called Ab7
B30: SAD10319_P01_A02 (ADI-57301) (antibody, V domains shown)
VH: B4 VH with D30T, S31E, S33E, D54L, A57N, D59K
VL: B1 VL with H36K, H38Y
notes: IgG; also called Ab236
B31: SAD10319_P02_B04 (ADI-57308) (antibody, V domains shown)
VH: B4 VH with D30A, S31D, S33A, D54G, A57S, D59K, H100A, V108H
VL: B1 VL with H36K, H38Y
notes: IgG; also called Ab249
B32: SAD10318_P03_B08 (ADI-57284) (antibody, V domains shown)
VH: B1 VH with A100H, G102H, H105F, H108V
VL: B1 VL with R33H, H38Y, K95H, R100H
notes: IgG; also called Ab196
B33: SAD10318_P04_E10 (ADI-57288) (antibody, V domains shown)
VH: B1 VH
VL: DIVMTQSPDSLAVSLGERATINCKSSQSLLNARTGHNYLAWYQQKPGQPPKLLISGSTRESGVPDRFSGSGSGTDFTLTISSLQAEDVAVYYCHQSYHRRTFGGGTKVEIK
notes: IgG; also called Ab212
B34: SAD10319_P02_C04 (ADI-57309) (antibody, V domains shown)
VH: B4 VH with D30E, D54A, H100A, G102H
VL: B1 VL with H36K, H38Y
notes: IgG; also called Ab250
B35: SAD10319_P01_C02 (ADI-57302) (antibody, V domains shown)
VH: B4 VH with D30T, S31E, S33N, D54L, A57N, D59L, H100A, G102H
VL: B1 VL with H36K, H38Y
notes: IgG; also called Ab238
B36: SAD10319_P02_A05 (ADI-48629) (antibody, V domains shown)
VH: B4 VH with S33A, D54N, D59T
VL: B1 VL with H36K, H38Y
notes: IgG; also called Ab255
B37: SAD10318_P04_D10 (ADI-48613) (antibody, V domains shown)
VH: B1 VH with R103H, H108V
VL: B1 VL with N31H, H36K
notes: IgG; also called Ab211
B38: SAD10319_P02_B05 (ADI-57314) (antibody, V domains shown)
VH: B20 VH with N30A, A46E, W50S, D52N, H101Y
VL: B1 VL with H36K, H38Y
notes: IgG; also called Ab256
B39: SAD10319_P01_H02 (ADI-48625) (antibody, V domains shown)
VH: B4 VH with D30T, S31D, S33A, D54S, D59V, H100A, G102H
VL: B1 VL with H36K, H38Y
notes: IgG; also called Ab242
B40: SAD10319_P01_D01 (ADI-48622) (antibody, V domains shown)
VH: B20 VH with N30K, D31S, A33D, A46E, Y59K, H101Y, H103R
VL: B1 VL with H36K, H38Y
notes: IgG; also called Ab231
B41: SAD10318_P04_E11 (ADI-57292) (antibody, V domains shown)
VH: B1 VH with R103H, H105F
VL: B1 VL with K95H, R100H
notes: IgG; also called Ab220
B42: SAD10319_P01_D02 (ADI-57303) (antibody, V domains shown)
VH: B18 VH with S31E, A32Y, L45P, Q46E, P47W, N52D, K59V, N77S, V108H
VL: B1 VL with H36K, H38Y
notes: IgG; also called Ab239

Biological target: T1, Cynomolgus CD3εδ Fc heterodimer (Cy …)
Experiment: BLI (Octet), IgG on AHC sensor, pH 6.0

Binder | koff [s⁻¹]
B1 | 0.006
B2 | 0.00284
B3 | 0.00139
B4 | 0.0284
B5 | 0.00544
B6 | 0.0025
B7 | 0.00254
B8 | 0.00436
B9 | 0.0328
B10 | 0.00531
B11 | 0.00215
B12 | 0.00475
B13 | 0.0179
B14 | 0.0212
B15 | 0.00322
B16 | 0.0196
B17 | 0.00402
B18 | 0.00249
B19 | 0.00697
B20 | 0.00296
B21 | 0.00183

Binder | koff [s⁻¹]
B22 | 0.00313
B23 | 0.0245
B24 | 0.00522
B25 | 0.00559
B26 | 0.0262
B27 | 0.00221
B28 | 0.0281
B29 | 0.019
B30 | 0.0165
B31 | 0.0203
B32 | 0.00303
B33 | 0.00245
B34 | 0.0215
B35 | 0.0251
B36 | 0.0269
B37 | 0.00251
B38 | 0.0388
B39 | 0.0314
B40 | 0.00946
B41 | 0.00256
B42 | 0.00686
